B1: FimA, main subunit of the type 1 pilus rod (natural protein)
chain: AATTVNGGTVHFKGEVVNAACAVDAGSVDQTVQLGQVRTASLAQEGATSSAVGFNIQLNDCDTNVASKAAVAFLGTAIDAGHTNVLALQSSAAGSATNVGVQILDRTGAALTLDGATFSSETTLNNGTNTIPFQARYFATGAATPGAANADATFKVQYQ
notes: also called FimAn; FimAn-1
B2: FimCHis, His-tagged type 1 pilus assembly chaperone FimC (natural protein)
chain: GVALGATRVIYPAGQKQEQLAVTNNDENSTYLIQSWVENADGVKDGRFIVTPPLFAMKGKKENTLRILDATNNQLPQDRESLFWMNVKAIPSMDKSKLTENTLQLAIISRIKLYYRPAKLALPPDQAAEKLRFRRSANSLTLINPTPYYLTVTELNAGTRVLENALVPPMGESTVKLPSDAGSNITYRTINDYGALTPKMTGVME
notes: source: E. coli BL21(DE3) (pFimCHis-cyt), purified (HisTrap, Source 30S); also co-expressed with FimD and FimH in E. coli Tuner (pETS1001) and purified as FimDCH
B3: FimC, type 1 pilus assembly chaperone (untagged) (natural protein)
chain: GVALGATRVIYPAGQKQEQLAVTNNDENSTYLIQSWVENADGVKDGRFIVTPPLFAMKGKKENTLRILDATNNQLPQDRESLFWMNVKAIPSMDKSKLTENTLQLAIISRIKLYYRPAKLALPPDQAAEKLRFRRSANSLTLINPTPYYLTVTELNAGTRVLENALVPPMGESTVKLPSDAGSNITYRTINDYGALTPKMTGVME
notes: source: E. coli BL21(DE3) (pFimC-cyt), purified (Q Sepharose, Source 30S, Phenyl Sepharose); also co-expressed with FimF or FimG in E. coli HM125 and purified from periplasmic extract as FimFC or FimGC
B4: FimI, assembly terminator subunit of the type 1 pilus (natural protein)
chain: GNKWNTTLPGGNMQFQGVIIAETCRIEAGDKQMTVNMGQISSNRFHAVGEDSAPVPFVIHLRECSTVVSERVGVAFHGVADGKNPDVLSVGEGPGIATNIGVALFDDEGNLVPINRPPANWKRLYSGSTSLHFIAKYRATGRRVTGGIANAQAWFSLTYQ

Assays:
Assay in all cases: cryo-EM structure
[1] = target: T1, FimD, type 1 pilus assembly platform (usher) (E. coli, UniProt P30130 46-878); details: both partners purified
T1 sequence: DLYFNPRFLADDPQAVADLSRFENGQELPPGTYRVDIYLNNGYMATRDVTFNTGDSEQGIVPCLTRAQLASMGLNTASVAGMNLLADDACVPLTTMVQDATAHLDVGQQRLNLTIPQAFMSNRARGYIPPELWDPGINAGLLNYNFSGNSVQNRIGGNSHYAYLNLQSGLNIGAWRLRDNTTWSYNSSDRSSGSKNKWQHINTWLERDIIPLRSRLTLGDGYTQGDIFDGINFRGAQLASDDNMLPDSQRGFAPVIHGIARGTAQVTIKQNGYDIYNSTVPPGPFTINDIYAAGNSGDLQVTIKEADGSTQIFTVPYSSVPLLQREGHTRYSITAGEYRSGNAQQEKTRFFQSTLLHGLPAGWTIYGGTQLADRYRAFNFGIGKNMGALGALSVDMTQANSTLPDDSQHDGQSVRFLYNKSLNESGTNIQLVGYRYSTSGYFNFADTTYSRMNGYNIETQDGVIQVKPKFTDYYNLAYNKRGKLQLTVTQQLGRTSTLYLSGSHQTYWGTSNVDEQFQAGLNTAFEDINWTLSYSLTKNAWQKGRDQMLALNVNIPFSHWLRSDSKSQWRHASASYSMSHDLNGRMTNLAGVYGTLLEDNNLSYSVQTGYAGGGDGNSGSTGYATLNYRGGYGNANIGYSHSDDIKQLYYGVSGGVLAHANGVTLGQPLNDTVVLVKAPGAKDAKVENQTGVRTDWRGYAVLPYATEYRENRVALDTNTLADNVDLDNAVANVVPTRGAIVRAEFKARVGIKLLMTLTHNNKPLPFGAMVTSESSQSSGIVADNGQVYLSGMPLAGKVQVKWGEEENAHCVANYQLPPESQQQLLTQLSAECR

[2] = target: B3; details: both partners purified
cryo-EM structure = target: the molecule itself
[3] = target: B4; details: both partners purified
[4] = target: B2; details: both partners purified

Binder | binding result [1] | binding result [2] | binding result (cryo-EM structure) | binding result [3] | binding result [4]
B1 | binds | binds | binds | binds | binds
B2 | binds | – | – | – | –
B3 | binds | – | – | – | –
B4 | binds | – | binds | – | binds
